Here are results for one molecule from patent US8835136B2, “Engineered amine dehydrogenases and methods of use thereof” (Georgia Tech Research Corporation, priority 2012, dated 2014).

Values joined by “and” are separate entries in the source; they are usually repeats but may differ in a detail not shown here. Identical values can stand only once.

A short description of data set [1]: Conversion with GDH cofactor recycle system (PheDH-AmDH). It counts as biochemical. The settings on record: 100 mL, 20 mM PFPA, 48 hours. The method, then:
The GDH consumes glucose present in solution to cheaply and efficiently regenerate the NADH cofactor, allowing conversion to continue beyond stoichiometric depletion of NADH. In a 100 mL reaction volume containing 20 mM PFPA, conversion was allowed to continue for 48 hours followed by extraction and ^1H-NMR to confirm the product formation and conversion levels. […] Under the same reaction conditions, 17.46 mg of the AmDH enhanced the overall conversion to 93.8% and 73.9% yield. Evidence of chirality was indicated by different NMR signals of the C3 hydrogens (δ 2.67, 2.49) which are adjacent to the C2 stereocenter (FIG. 18).

A short description of data set [2]: Reductive amination, spectrophotometric assay at 340 nm. The settings on record: 500 mM NH4Cl/NH4OH pH 9.6, 200 μM NADH, 20 mM, 25° C. The format is biochemical. The method, then:
Activity of purified proteins was measured using a spectrophotometric assay at 340 nm, corresponding to the cofactor nicotinamide adenine dinucleotide (NADH, ε340=6220 M^−1 cm^−1) (Dawson, et al., Clarendon Press, (1989). For reductive amination, reactions took place in 500 mM NH4Cl/NH4OH at pH 9.6, with 200 μM NADH and 20 mM of the ketone substrate, unless otherwise specified. For oxidative deamination, reactions took place in 0.1 M NaHCO3/Na2CO3 buffer at pH 10.0, with 1 mM NAD+ with 10 mM of the amine substrate of interest. All reactions were performed at 25° C. unless otherwise specified. Enzyme was added in 10 μL aliquots in dilute concentrations. Enzyme concentrations varied upon activity levels with the substrate present, but were dilute enough to ensure linear conversion kinetics over the analytical time period (10 min to 30 min). Specific activities were then calculated from the stoichiometric conversion of cofactor as determine by the change in absorbance at 340 nm over time.
The activity of the purified protein was evaluated using a spectrophotometric assay at 340 nm as described in Section 3.2.3 at 25° C. in various concentrations of NH4Cl/NH4OH buffer pH 9.6.

B1: K77S N276L: PheDH-AmDH double variant, SEQ ID NO:2; PheDH library 1 hit 1H4 (protein)
chain: SLVEKTSIIKDFTLFEKMSEHEQVVFCNDPATGLRAIIAIHDTTLGPALGGCRMQPYNSVEEALEDALRLSKGMTYSCAASDVDFGGGKAVIIGDPQKDKSPELFRAFGQFVDSLGGRFYTGTDMGTNMEDFIHAMKETNCIVGVPEAYGGGGDSSIPTAMGVLYGIKATNKMLFGKDDLGGVTYAIQGLGKVGYKVAEGLLEEGAHLFVTDINEQTLEAIQEKAKTTSGSVTVVASDEIYSQEADVFVPCAFGGVVNDETMKQFKVKAIAGSANLQLLTEDHGRHLADKGILYAPDYIVNSGGLIQVADELYEVNKERVLAKTKHIYDAILEVYQQAELDQITTMEAANRMCEQRMAARGRRNSFFTSSVKPKWDIRN
With B1, the “conversion of 4-fluorophenyl acetone” value in data set [1] (7.48 mg AmDH) is 89.4%. For the same molecule, the overall conversion in data set [1] (17.46 mg AmDH) was determined as 93.8%. Further, in data set [2], the “Activity, 1-Boc-piperidone” value was found to be 7.8 ± 1.1 mU/mg; the “Activity, 2-hexanone” value was 155.7 mU/mg and 155.7 ± 1.4 mU/mg; the “Activity, 2-methylcyclohexanone” value is reported as 19.3 ± 1.1 mU/mg; the “Activity, 3-hexanone” value is 1.6 mU/mg and 1.6 ± 0.5 mU/mg. Besides, in data set [2], the “Activity, 3-methyl-2-butanone” value is on record as 72.7 ± 1.4 mU/mg; the “Activity, 3-methylcyclohexanone” value was 41.1 ± 2.1 mU/mg; the “Activity, 3-pentanone” value came to 1.3 ± 0.0 mU/mg; the “Activity, Benzyloxyacetic acid” value is 22.6 ± 0.7 mU/mg. Besides, in data set [2], the “Activity, benzaldehyde” value is recorded as 31.4 ± 8.7 mU/mg; the “Activity, cyclopentanone” value worked out at 0.9 ± 0.5 mU/mg; the “Activity, phenoxy-2-propanone” value came to 540.8 ± 6.9 mU/mg. In addition, in data set [2] (listed as K77S/N276L), the “Activity, 2-hexanone” value is reported as 155.7 mU/mg and the “Activity, 3-hexanone” value is listed as 1.6 mU/mg.
